Data taken from PMC6441084, “The formin Drosophila homologue of Diaphanous2 (Diaph2) controls microtubule dynamics in colorectal cancer cells independent of its FH2-domain” (Scientific Reports, 2019).

Target: microtubules (MTs) polymerised from purified tubulin (Cytoskeleton, # T240) (UniProt P02550 1-451)
Experiment: cell-based or functional assay

rate of MT-polymerization (turbidity at 340 nm, no taxol; 2 µM tubulin, 0.2 µM Diaph2 protein), fold against the buffer control [fold] | Binder
4 | FH2-domain of Diaph2 (aa 624-1049), GST-fusion protein (domain or fragment, human, UniProt O60879 624-1049, looked up) YGMKQKKMYKPEVSMKRINWSKIEPTELSENCFWLRVKEDKFENPDLFAKLALNFATQIKVQKNAEALEEKKTGPTKKKVKELRILDPKTAQNLSIFLGSYRMPYEDIRNVILEVNEDMLSEALIQNLVKHLPEQKILNELAELKNEYDDLCEPEQFGVVMSSVKMLQPRLSSILFKLTFEEHINNIKPSIIAVTLACEELKKSESFNRLLELVLLVGNYMNSGSRNAQSLGFKINFLCKIRDTKSADQKTTLLHFIADICEEKYRDILKFPEELEHVESASKVSAQILKSNLASMEQQIVHLERDIKKFPQAENQHDKFVEKMTSFTKTAREQYEKLSTMHNNMMKLYENLGEYFIFDSKTVSIEEFFGDLNNFRTLFLEAVRENNKRREMEEKTRRAKLAKEKAEQEKLERQKKKKQLIDINKE
40 | full-length (FL) Diaph2 (Drosophila homologue of Diaphanous2), GST-fusion protein (natural protein, human, UniProt O60879 1-1101, looked up) MEQPGAAASGAGGGSEEPGGGRSNKRSAGNRAANEEETKNKPKLNIQIKTLADDVRDRITSFRKSTVKKEKPLIQHPIDSQVAMSEFPAAQPLYDERSLNLSEKEVLDLFEKMMEDMNLNEEKKAPLRNKDFTTKREMVVQYISATAKSGGLKNSKHECTLSSQEYVHELRSGISDEKLLNCLESLRVSLTSNPVSWVNNFGHEGLGLLLDELEKLLDKKQQENIDKKNQYKLIQCLKAFMNNKFGLQRILGDERSLLLLARAIDPKQPNMMTEIVKILSAICIVGEENILDKLLGAITTAAERNNRERFSPIVEGLENQEALQLQVACMQFINALVTSPYELDFRIHLRNEFLRSGLKTMLPDLKEKENDELDIQLKVFDENKEDDLTELSHRLNDIRAEMDDMNEVYHLLYNMLKDTAAENYFLSILQHFLLIRNDYYIRPQYYKIIEECVSQIVLHCSGMDPDFKYRQRLDIDLTHLIDSCVNKAKVEESEQKAAEFSKKFDEEFTARQEAQAELQKRDEKIKELEAEIQQLRTQAQVLSSSSGIPGPPAAPPLPGVGPPPPPPAPPLPGGAPLPPPPPPLPGMMGIPPPPPPPLLFGGPPPPPPLGGVPPPPGISLNLPYGMKQKKMYKPEVSMKRINWSKIEPTELSENCFWLRVKEDKFENPDLFAKLALNFATQIKVQKNAEALEEKKTGPTKKKVKELRILDPKTAQNLSIFLGSYRMPYEDIRNVILEVNEDMLSEALIQNLVKHLPEQKILNELAELKNEYDDLCEPEQFGVVMSSVKMLQPRLSSILFKLTFEEHINNIKPSIIAVTLACEELKKSESFNRLLELVLLVGNYMNSGSRNAQSLGFKINFLCKIRDTKSADQKTTLLHFIADICEEKYRDILKFPEELEHVESASKVSAQILKSNLASMEQQIVHLERDIKKFPQAENQHDKFVEKMTSFTKTAREQYEKLSTMHNNMMKLYENLGEYFIFDSKTVSIEEFFGDLNNFRTLFLEAVRENNKRREMEEKTRRAKLAKEKAEQEKLERQKKKKQLIDINKEGDETGVMDNLLEALQSGAAFRDRRKRIPRNPDNRRVPLERSRSRHNGAISSK
